Experimental data as given in article PMC12216678.

Biological target: mouse FXII^HC5 (mouse)
Test: native MS; buffer-exchanged into 1 M ammonium acetate pH 7.0, electrospray, Bruker maXis qTOF, native-favouring source conditions

With mouse FXII^HC5 (domain or fragment) as the substance, how does the stoichiometry N read?
Its stoichiometry N is 2.
